# Results reported in patent US20120309934A1 (GWANGJU INSTITUTE OF SCIENCE AND TECHNOLOGY, published 2012).
# Read-outs that look alike come from different tables or passages of the source.
# Key:
# [1] = biological target: T1, Human serum albumin (human, UniProt P02768 25-609); experiment: SPR (Biacore)
# T1 construct: Bought protein; also called HSA; HAS
# [2] = biological target: T2, Streptavidin (UniProt P22629 37-163, limits assumed); experiment: phage ELISA, absorbance at 450 nm
# T2 construct: Control protein in the input-phage ELISA; also called straptavidin
# T2 sequence (P22629 37-163 limits assumed): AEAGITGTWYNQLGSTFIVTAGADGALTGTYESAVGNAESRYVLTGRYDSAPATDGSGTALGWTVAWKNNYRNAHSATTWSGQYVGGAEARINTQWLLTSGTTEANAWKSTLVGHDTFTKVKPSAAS
# [3] = biological target: T1, Human serum albumin; experiment: SPR (Biacore), synthetic peptide; immobilisation of HSA not described
# [4] = biological target: T3, BSA (UniProt P02769 25-607); experiment: phage ELISA, absorbance at 450 nm
# T3 construct: Control protein in the input-phage ELISA; also called bovine serum albumin
# T3 sequence (P02769 25-607 limits assumed): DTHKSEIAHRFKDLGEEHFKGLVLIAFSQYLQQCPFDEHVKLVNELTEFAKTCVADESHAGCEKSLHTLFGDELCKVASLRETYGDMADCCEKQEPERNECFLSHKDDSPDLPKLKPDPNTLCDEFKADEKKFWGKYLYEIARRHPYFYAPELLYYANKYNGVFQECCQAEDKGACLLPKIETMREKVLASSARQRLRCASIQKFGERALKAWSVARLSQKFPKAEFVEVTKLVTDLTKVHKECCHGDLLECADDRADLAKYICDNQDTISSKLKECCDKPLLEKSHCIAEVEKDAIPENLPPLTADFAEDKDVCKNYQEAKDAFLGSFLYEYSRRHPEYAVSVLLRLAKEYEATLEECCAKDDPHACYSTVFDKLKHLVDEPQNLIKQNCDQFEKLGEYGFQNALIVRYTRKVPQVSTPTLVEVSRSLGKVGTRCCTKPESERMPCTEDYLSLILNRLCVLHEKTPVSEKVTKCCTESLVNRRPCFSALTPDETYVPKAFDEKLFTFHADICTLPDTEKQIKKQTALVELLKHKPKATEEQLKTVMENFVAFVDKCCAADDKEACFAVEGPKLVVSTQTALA
# [5] = biological target: T4, VEGF121 (human vascular endothelial growth factor) (human, UniProt P15692-9 27-147); experiment: phage ELISA, absorbance at 450 nm
# T4 construct: Immobilised on a CM5 chip by EDC/NHS for SPR and coated on plates for phage ELISA; also called VEGF-Trx cut with thrombin
# T4 sequence (looked up): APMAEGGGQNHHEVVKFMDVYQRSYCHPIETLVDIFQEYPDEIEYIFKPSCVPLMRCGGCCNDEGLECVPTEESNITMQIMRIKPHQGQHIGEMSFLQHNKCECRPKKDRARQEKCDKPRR
# [6] = biological target: T1, Human serum albumin; experiment: phage ELISA, absorbance at 450 nm
# [7] = biological target: T2, Streptavidin; experiment: phage ELISA, absorbance at 450 nm; remark: listed apart in the source
# [8] = biological target: T5, STAT3 protein (UniProt P40763 1-770, limits assumed); experiment: phage ELISA of single clones on STAT3 against streptavidin
# T5 sequence (P40763 whole entry): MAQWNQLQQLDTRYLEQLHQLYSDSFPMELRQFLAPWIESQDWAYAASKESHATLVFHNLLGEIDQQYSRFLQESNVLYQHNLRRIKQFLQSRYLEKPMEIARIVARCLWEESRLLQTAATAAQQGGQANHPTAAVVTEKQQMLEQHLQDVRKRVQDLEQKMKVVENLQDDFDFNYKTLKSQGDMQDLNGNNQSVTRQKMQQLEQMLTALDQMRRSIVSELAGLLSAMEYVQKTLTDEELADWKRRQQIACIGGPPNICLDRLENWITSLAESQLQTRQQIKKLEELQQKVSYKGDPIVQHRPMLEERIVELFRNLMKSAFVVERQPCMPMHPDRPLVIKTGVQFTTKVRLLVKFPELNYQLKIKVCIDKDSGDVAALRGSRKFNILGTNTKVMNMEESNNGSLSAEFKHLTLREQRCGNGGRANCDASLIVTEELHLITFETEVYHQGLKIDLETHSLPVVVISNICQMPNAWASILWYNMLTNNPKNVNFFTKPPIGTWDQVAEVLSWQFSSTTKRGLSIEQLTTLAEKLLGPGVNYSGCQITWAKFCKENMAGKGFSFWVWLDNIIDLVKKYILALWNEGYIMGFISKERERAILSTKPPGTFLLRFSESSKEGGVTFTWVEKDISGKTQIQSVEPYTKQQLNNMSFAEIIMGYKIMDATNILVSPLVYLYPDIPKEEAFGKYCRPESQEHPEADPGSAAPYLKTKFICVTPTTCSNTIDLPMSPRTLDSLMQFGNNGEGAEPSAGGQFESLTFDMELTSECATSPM
# Experimental: STAT3 (10 μg/ml), BSA (10 μg/ml) and streptavidin (10 μg/ml) each was added to 30 wells (50 μl per well) in a 96-well ELISA plate and then kept to stand at 4° C. overnight. Next day, all wells were washed with 0.1% PBST three times, and blocked at room temperature for 2 hrs using 2% skim milk diluted with PBS. Then, the solution was removed and the plate was washed with 0.1% PBST three times. Phage peptide solution (100 μl) amplified from each clone was aliquoted to STAT3-bound wells and streptavidin protein-bound wells and kept to stand at 27° C. for 1.5 hrs. After washing with 0.1% PBST 10 times, HRP-conjugated anti-M13 antibodies (1:1,000 dilution; GE Healthcare) were added to each well and incubated at 27° C. for 1 hr. After washing with 0.1% PBST 5 times, 100 μl TMB was divided into each well to induce colorimetric reaction, followed by stopping the reaction adding 100 μl of 1 M HCl. The absorbance was measured at 450 nm to select phages which had the absorbance above 20-fold higher than BSA. XL1 cells were infected with these phages and spread in plate to produce 100-200 of plaques. […]
# The phages recovered from the 4th biopanning step having the highest O/I ratio in each library were isolated as plaques. […] The DNA 10 sequencing was performed for 6 clones showing the absorbance value above 2-fold higher than streptavidin. […]
# [9] = biological target: T5, STAT3 protein; experiment: SPR (Biacore X), STAT3 (4000 RU) on CM5 chip, peptide at 2, 5 and 7.5 µM
# Experimental: The peptide sequences were identified by DNA sequencing. Two peptides were synthesized (BPB1: QAYYIP […] LWGPEF; BPB2: HGFQWP […] AYQFLK).
# The affinity of the bipodal-peptide binder (BPB1: QAYYIP […] LWGPEF) was measured using SPR (Biacore X). The STAT3 protein (4000 RU) was fixed onto the CM5 chip. The concentrations of 2 μM, 5 μM and 7.5 μM the bipodal-peptide binder were used.
# [10] = biological target: T4, VEGF121 (human vascular endothelial …); experiment: phage ELISA, absorbance at 450 nm; remark: listed apart in the source
# [11] = biological target: T3, BSA; experiment: phage ELISA, absorbance at 450 nm; remark: listed apart in the source
# [12] = biological target: T6, Peptide fragment of nAchR (Nicotinic acetylcholine receptor), 32 mer, biotinylated (N-terminal biotin); experiment: SPR (BIAcore X), biotinylated nAchR peptide on SA chip
# T6 construct: Synthesised by Anigen; Immobilised on a streptavidin chip for SPR; also called biotinylated nAchR; biotinylated-nAchR peptide
# T6 peptide: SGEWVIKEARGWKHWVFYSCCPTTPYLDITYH
# Experimental: (§1) Bipodal-peptide binder peptides specific to ED-B, VEGF or nAchR which were repetitively found in DNA sequencing were synthesized from Anigen Inc. (Korea). Affinity was measured using BIAcore X instrument (Biacore AB, Uppsala, Sweden). ED-B and nAchR were immobilized on streptavidin (SA) chip (Biacore) by injecting 2,000 RU biotinylated-EDB. VEGF was immobilized on CM5 chip (Biacore) using EDC/NHS. PBS (pH 7.4) was used as a running buffer.
# (§2) The above-mentioned peptides were synthesized and their affinities to fibronectin ED-B, VEGF, VCAM1, nAchR and HAS were measured using SPR Biacore system (Biacore AB, Uppsala, Sweden).
# [13] = biological target: T6, Peptide fragment of nAchR (Nicotinic …); experiment: SPR (BIAcore X), biotinylated nAchR peptide on streptavidin chip, synthetic peptide as analyte
# Experimental: as §1, §2
# [14] = biological target: T7, Fibronectin ED-B protein (human fibronectin extra domain B, N-terminal His-tag) (human, UniProt P02751 1266-1356, biotinylated with sulfo-NHS-SS-biotin for biopanning, input-phage ELISA and SPR on the streptavidin chip); experiment: SPR, synthetic bipodal peptide on ED-B
# T7 construct: domain: ED-B; Expressed in E. coli BL21 from pET28b; also called biotinylated-EDB; not shown: N-terminal His-tag from the pET28b vector
# T7 sequence (P02751 1266-1356): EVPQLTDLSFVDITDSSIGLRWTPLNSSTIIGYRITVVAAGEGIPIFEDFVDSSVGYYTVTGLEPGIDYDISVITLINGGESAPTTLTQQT
# Experimental: as §1
# To verify cooperative effect of bipodal-peptide binder to antigen, we synthesized two peptides removing either N- or C-terminal region of peptide 2 to ED-B having excellent specificity in Table 3a for affinity measurement.
# [15] = biological target: T3, BSA; experiment: phage ELISA, absorbance at 450 nm; remark: listed apart in the source
# [16] = biological target: T2, Streptavidin; experiment: phage ELISA, absorbance at 450 nm; remark: listed apart in the source
# [17] = biological target: T7, Fibronectin ED-B protein (human …); experiment: SPR (BIAcore X), biotinylated ED-B on SA chip
# Experimental: as §1, §2
# [18] = biological target: T7, Fibronectin ED-B protein (human …); experiment: SPR (BIAcore X), biotinylated ED-B on streptavidin chip, synthetic peptide as analyte
# Experimental: as §1, §2
# [19] = biological target: T7, Fibronectin ED-B protein (human …); experiment: phage ELISA on 10 coated proteins (streptavidin, ED-B, acetylcholine α1, BSA, VCAM, TNF-α, thrombin, myoglobin, lysozyme, visfatin), anti-M13-HRP
# Experimental: Specificity of recombinant phages to each protein was carried out using ELISA. Each protein (5 μg/ml) was seeded into wells (50 μl per well) in a 96-well ELISA plate and next day, all wells were washed with 0.1% PBST (Tween-20) three times, and blocked at room temperature for 2 hrs using 2% skim milk. Then, the solution was completely removed and the plate was washed with 0.1% PBST three times. Recombinant phages containing the peptide of the present invention were thoroughly mixed with 2% BSA. Each mixture (100 μl) was divided into wells coated with 10 proteins and kept to stand at 27° C. for 2 hrs. After washing with 0.1% PBST 5 times, HRP-conjugated anti-M13 antibodies (1:1,000 dilution; GE Healthcare) were added to each well and incubated at 27° C. for 1 hr. After washing with 0.1% PBST 5 times, 100 μl TMB was divided into each well to induce colorimetric reaction, followed by stopping the reaction adding 100 μl of 1 M HCl. The absorbance was measured at 450 nm.
# [20] = biological target: T3, BSA; experiment: phage ELISA, absorbance at 450 nm; remark: listed apart in the source
# [21] = biological target: T4, VEGF121 (human vascular endothelial …); experiment: phage ELISA, absorbance at 450 nm; remark: listed apart in the source
# [22] = biological target: T2, Streptavidin; experiment: phage ELISA, absorbance at 450 nm; remark: listed apart in the source
# T1 sequence (P02768 25-609 limits assumed): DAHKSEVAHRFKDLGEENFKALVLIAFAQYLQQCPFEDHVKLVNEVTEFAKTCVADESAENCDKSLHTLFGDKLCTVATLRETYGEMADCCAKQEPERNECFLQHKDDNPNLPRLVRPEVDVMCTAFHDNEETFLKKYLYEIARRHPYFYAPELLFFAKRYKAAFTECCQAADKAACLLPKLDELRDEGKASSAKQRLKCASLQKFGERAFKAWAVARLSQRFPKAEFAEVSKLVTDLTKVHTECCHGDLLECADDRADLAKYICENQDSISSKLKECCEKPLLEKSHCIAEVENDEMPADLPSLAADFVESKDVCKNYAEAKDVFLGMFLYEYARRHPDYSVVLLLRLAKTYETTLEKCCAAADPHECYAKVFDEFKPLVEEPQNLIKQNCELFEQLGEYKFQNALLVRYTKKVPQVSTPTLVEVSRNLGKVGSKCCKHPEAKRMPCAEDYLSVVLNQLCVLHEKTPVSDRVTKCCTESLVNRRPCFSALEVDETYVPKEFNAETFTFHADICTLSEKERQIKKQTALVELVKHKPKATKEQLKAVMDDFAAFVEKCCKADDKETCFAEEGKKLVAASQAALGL
binder,measurement,setting,value
"AASPYKGSWTWENGKWTWKGGWRMKM [Peptide 1 specific to HSA (Table 3e), bipodal-peptide binder]",koff,[1],0.02 s⁻¹
same,kon,[1],250000 M⁻¹ s⁻¹
same,binding result,[2],no binding
same,Kd,[3],115 nM
QAYYIPGSWTWENGKWTWKGLWGPEF (also called BPB1; Peptidel) [STAT3-specific bipodal-peptide binder Peptide 1],binding result,[4],no binding
same,binding result,[5],no binding
same,binding result,[6],no binding
same,binding result,[7],no binding
same,fold absorbance over streptavidin,[8],> 2 fold
same,Kd,[9],~1700 nM
"HSHAFYGSWTWENGKWTWKGNPGWWT [Peptide 1 specific to MyD88 (Table 3f), bipodal-peptide binder]",binding result,[10],no binding
"EASFWLGSWTWENGKWTWKGKGTLNR [Peptide 1 specific to nAchR (Table 3d), bipodal-peptide binder]",binding result,[11],no binding
same,koff,[12],0.0085 s⁻¹
same,kon,[12],110000 M⁻¹ s⁻¹
same,Kd,[13],73 nM
"HCSSAVGSWTWENGKWTWKGIIRLEQ [Peptide 2 specific to fibronectin ED-B (Table 3a), bipodal-peptide binder with tryptophan zipper]",Kd,[14],43 nM
same,binding result,[15],no binding
same,binding result,[16],no binding
same,koff,[17],0.0008 s⁻¹
same,kon,[17],10000 M⁻¹ s⁻¹
same,Kd,[18],75 nM
same,fold absorbance over other proteins,[19],> 30 fold
HGFQWPGSWTWENGKWTWKGAYQFLK (also called BPB2) [STAT3-specific bipodal-peptide binder Peptide 2],binding result,[20],no binding
same,binding result,[21],no binding
same,binding result,[22],no binding
same,fold absorbance over streptavidin,[8],> 2 fold
